We go through eleven molecules from patent publication US20240287208A1 (CONCEPT TO MEDICINE BIOTECH, published 2024).

For experiment [1], the target named is T1, human CD40 on the cell surface (human, UniProt P25942 21-277). Put plainly: cell-based or functional assay.
Another experiment deals with T2, human 4-1BB protein (human, UniProt Q07011 24-186).
T2 construct: also called 4-IBB
Put plainly: ELISA, plate-coated protein. The method, then:
(§1) To evaluate the cross reactivity of chimeric anti-CD40 antibodies to other family members of TNF receptors, the ELISA binding towards human 4-1BB and human OX40 were performed.
(§2) Briefly, microtiter plates were coated with human 4-1BB protein or human OX40 protein at 1 μg/ml in PBS, 100 μl/well at 4° C. overnight, then blocked with 150 μl/well of 1% BSA. Ten-fold dilutions of 42p155, 2p834, 2p931, 42p655, 2p1294, 2p957, 42p495, 3p78, 2p415, 2p442, 2p551, 2p80 and 2p1130 antibodies starting from 100 nM were added to each well and incubated for 1 hour at RT. The plates were washed with PBS/Tween and then incubated with Anti-Human IgG (H&L) (GOAT) Antibody Peroxidase Conjugated for 30 mins at RT. After washing, the plates were developed with TMB substrate and analyzed by spectrophotometer at OD 450 nm.
In general terms: ELISA stands for enzyme-linked immunosorbent assay.

The target of a further experiment is T3, human OX40 protein (human, UniProt P43489 29-216, limits assumed).
T3 sequence (looked up): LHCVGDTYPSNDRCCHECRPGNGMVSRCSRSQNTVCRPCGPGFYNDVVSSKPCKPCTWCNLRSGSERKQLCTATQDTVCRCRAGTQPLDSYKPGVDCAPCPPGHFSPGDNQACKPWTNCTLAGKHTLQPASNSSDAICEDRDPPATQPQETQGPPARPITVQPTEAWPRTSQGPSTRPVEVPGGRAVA
The experiment in a line: ELISA, plate-coated protein. The method, then:
as §1, §2

A further experiment concerns the target T4, human CD40-His protein (human, UniProt P25942 21-193).
T4 construct: His-tagged recombinant protein; also called human CD40-his tag; recombinant CD40 protein
The experiment in a line: ELISA, plate-coated human CD40-His. The method, then: (§3) To evaluate the binding activity of clones 42p155, 2p834, 2p931, 42p655, 2p1294, 2p957, 42p495, 3p78, 2p415, 2p442, 2p551, 2p80 and 2p1130, the chimeric monospecific antibody (mAb) from these clones were subjected to ELISA test, along with selicrelumab, the clinical benchmark anti-CD40 agonist antibodies.
as §2, with “human CD40-His” for “human 4-1BB protein or human OX40”, “at 1.0” for “at 1”, “150 µl/well” for “150 μl/well”

For experiment [2], the target named is T5, cynomolgus CD40-His protein (cynomolgus, UniProt G7PG38 21-193).
T5 construct: His-tagged recombinant protein; also called cyno CD40 antigen
The experiment in a line: ELISA, plate-coated cynomolgus CD40-His. How it is done:
as §3
as §2, with “The binding affinity of these clones to cynomolgus CD40 was also tested. Microtiter plates” for “Briefly, microtiter plates”, “with cynomolgus CD40-His” for “with human 4-1BB protein or human OX40”, “at 1.0” for “at 1”, “100 µl/well” for “100 μl/well”, “150 µl/well” for “150 μl/well”, “nm. As shown in FIG. 1B and Table 2, all these clones bound to cynomolgus CD40 at high activity, showing good cross-reactivity between human and cynomolgus CD40 proteins.” for “nm.”

Experiment [3] deals with T1, human CD40 on the cell surface. The experiment in a line: FACS, Jurkat cells overexpressing human CD40, PE anti-human IgG, MFI. The method, then:
To evaluate the binding affinity of 5T4-CD40 bispecific antibodies to cell surface CD40, bispecific antibodies with formats of b 1 (42p155z2), b12 (42p155z2), b13 (42p155z2), b16 (42p155z2), b17 (42p155z2) and b18 (2p1130) were tested in Jurkat cell lines that overexpressed CD40 by FACS. A total number of 1×10⁵ Jurkat-CD40 cells in each well were incubated with 5-fold serially diluted antibodies starting from 100 nM for 30 minutes at 4° C. in FACS buffer. After wash by FACS buffer, PE conjugated-anti-human IgG antibody was added to each well and incubated at 4° C. for 30 minutes. After wash, MFI of PE was evaluated by MACSQuant Analyzer 16.

T4 sequence (P25942 21-193 limits assumed): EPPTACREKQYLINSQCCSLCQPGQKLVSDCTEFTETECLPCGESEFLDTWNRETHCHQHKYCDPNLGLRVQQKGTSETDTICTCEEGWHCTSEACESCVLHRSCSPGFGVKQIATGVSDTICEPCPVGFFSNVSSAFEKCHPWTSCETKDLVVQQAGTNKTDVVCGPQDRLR
T1 sequence (P25942 21-277): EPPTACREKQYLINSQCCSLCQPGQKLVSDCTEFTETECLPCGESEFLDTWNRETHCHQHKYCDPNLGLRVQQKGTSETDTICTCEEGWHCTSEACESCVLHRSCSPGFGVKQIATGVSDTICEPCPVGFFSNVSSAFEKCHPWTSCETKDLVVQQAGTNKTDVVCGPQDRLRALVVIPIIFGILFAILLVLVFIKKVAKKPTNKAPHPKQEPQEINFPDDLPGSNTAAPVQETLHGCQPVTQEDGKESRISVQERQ

B1: 42p495 chimeric monospecific antibody (antibody, V domains shown)
VH: PVQLVESGGNLVQPGGSLRLSCVAPGFTSRNSAMSWVRQAPGKGLEWVSTIYSGKSNTDYADSVKGRFTISTDNAKNTLYLHMNKLKSEDTAVYYCAKGAASDWYVPRDYWGQGTQVTVSS
notes: Chimeric monospecific antibody
B1: the “CD40 NF-κB luciferase reporter (Jurkat), RLU” value (“CD40 NF-κB luciferase reporter” below) in experiment [1] was above 10 nM. Moreover, the binding result with human 4-1BB protein and with human OX40 protein was “no binding (tested: 100 nM (highest concentration))” each time. Besides, the EC50 (commonly the midpoint of the concentration-response curve) was 1.52 nM with human CD40-His protein and 1 nM in experiment [2].

B2: 2p551 chimeric monospecific antibody (antibody, V domains shown)
VH: QLHFVESGGGLVQPGGSLRLSCAASGFTLDYYAIGWFRQAPGKEREGVSCISGGGSTRYADSVKGRFTISRDNAKNTVYLQMNSLTPEDTAVYYCAAARLLSTNCVPRDSGSWGQGTQVTVSS
notes: as for B1
Consider B2, for which the “CD40 NF-κB luciferase reporter” value in experiment [1] is above 10 nM. Also, the binding result with human 4-1BB protein and with human OX40 protein was “no binding (tested: 100 nM (highest concentration))” each time. Moreover, the EC50 is 1.4 nM with human CD40-His protein and 0.13 nM in experiment [2].

B3: 2p415 chimeric monospecific antibody (antibody, V domains shown)
VH: QLHFVESGGGLVQPGGSLRLSCAASGFTLDHYAMGWFRQAPGKEREGVSCISGGGSTRYADSAKGRFTISRDNAKNTVYLQMNSLTPEDTAVYYCAAARLLSRNCVPRDSGSWGQGTQVTVSS
notes: as for B1
Consider B3, for which the “CD40 NF-κB luciferase reporter” value in experiment [1] was above 10 nM. Also, the binding result with human 4-1BB protein and with human OX40 protein was “no binding (tested: 100 nM (highest concentration))” each time. For the same molecule, the figures for the EC50 (with human CD40-His protein; in experiment [2]) were 1.27 nM and 0.23 nM, respectively.

B4: 2p1130 chimeric monospecific antibody (antibody, V domains shown)
VH: EVQVVESGGGLVQPGGSLRLTCAASGFSVDDYGIGWFRQAPGREREGVACITPNGLMMNFANTVGSVAGRFSASRDSGENTVSLQMSSLKPEDTAIYFCAHSRDDSCRGSLSDYDDWGQGTQVTVSS
notes: as for B1
As for B4, in experiment [1], the “CD40 NF-κB luciferase reporter” value is above 10 nM. For the same molecule, the binding result with human 4-1BB protein and in the experiment with human OX40 protein was “no binding (tested: 100 nM (highest concentration))” each time. In addition, the EC50 with human CD40-His protein stood at 2.56 nM; in experiment [2], 0.73 nM.

B5: 2p957 chimeric monospecific antibody (antibody, V domains shown)
VH: PVQLVESGGGLVQPGGSLRLSCAASGFSFRNYIMSWVRQAPGKGLEWLSSITNSGGITSYTESVKGRFTISRDNAKNTLYLQMNSLKPEDTAVYYCAQGGSDNYYRGSWGQGTQVTVSS
notes: as for B1
Consider B5, for which the “CD40 NF-κB luciferase reporter” value in experiment [1] was above 10 nM. The binding result in the experiment with human 4-1BB protein and with human OX40 protein was “no binding (tested: 100 nM (highest concentration))” in each case. For the same molecule, the EC50 in the experiment with human CD40-His protein is 1.8 nM; in experiment [2] it was 1.08 nM.

B6: 42p155 chimeric monospecific antibody (antibody, V domains shown)
VH: PSQLVESGGGLVQPGGSLRLSCAASGFAFRSYTMSWVRQAPGKGLEWVSTITHNGAITTYAESAQGRFTISRDNAKNTLYLQMNSLKPEDTAVYYCAQGGGSNYYRESWGQGTQVTVSS
notes: Chimeric monospecific antibody (cAb) made from the VHH; also called 42p155 cAb
With B6, in experiment [1], the “CD40 NF-κB luciferase reporter” value was above 10 nM. Further, the binding result with human 4-1BB protein and with human OX40 protein was “no binding (tested: 100 nM (highest concentration))” in each case.

B7: 2p1294 chimeric monospecific antibody (antibody, V domains shown)
VH: QVQLVESGGGLVQPGGSLRLSCAASGFSFRRYTMSWVRQAPGKGLEWVSAISDNGAITTYTESAQGRFTISRDNAKNTLYLQMNSLKPEDTAVYYCAQGGGSNYYRESWGQGTQVTVSS
notes: as for B1
Regarding B7, the “CD40 NF-κB luciferase reporter” value in experiment [1] is above 10 nM. Also, the binding result in the experiment with human 4-1BB protein and in the experiment with human OX40 protein was “no binding (tested: 100 nM (highest concentration))” each time. In addition, the results for the EC50 (in the experiment with human CD40-His protein; in experiment [2]) were 1.16 nM and 0.32 nM, respectively.

B8: 42p655 chimeric monospecific antibody (antibody, V domains shown)
VH: AVQLVESGGGLVQPGGSLRLSCAASGFAFRRYTMSWVRQAPGKGLEWVSSITDNGSITTYAESAQGRFTISRDNAKNTLYLQMNSLKPEDTAVYHCAQGGGSNYYRESWGQGTQVTVSS
notes: as for B1
On to B8, for which, in experiment [1], the “CD40 NF-κB luciferase reporter” value was above 10 nM. Besides, the binding result with human 4-1BB protein and with human OX40 protein was “no binding (tested: 100 nM (highest concentration))” each time. For the same molecule, the EC50 with human CD40-His protein stood at 1.24 nM; in experiment [2] it was 0.35 nM.

B9: b13 (42p155z2) anti-5T4/CD40 bispecific antibody (bispecific antibody, human IgG1, kappa, N297A)
heavy: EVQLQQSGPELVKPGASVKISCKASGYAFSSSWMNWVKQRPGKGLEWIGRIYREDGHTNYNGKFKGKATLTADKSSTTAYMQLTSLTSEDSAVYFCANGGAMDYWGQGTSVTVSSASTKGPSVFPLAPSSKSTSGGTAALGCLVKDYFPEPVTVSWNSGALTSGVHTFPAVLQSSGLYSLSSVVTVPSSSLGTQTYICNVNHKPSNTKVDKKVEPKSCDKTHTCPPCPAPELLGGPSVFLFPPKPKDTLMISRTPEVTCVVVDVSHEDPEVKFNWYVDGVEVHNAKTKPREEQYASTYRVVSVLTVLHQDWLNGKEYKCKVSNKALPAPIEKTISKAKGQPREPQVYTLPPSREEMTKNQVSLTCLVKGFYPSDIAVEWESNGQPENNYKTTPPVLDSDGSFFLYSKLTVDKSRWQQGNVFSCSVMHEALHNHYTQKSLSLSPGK
light: DIQMTQSTSSLSASLGDRVTISCRASQDISNYLNWYQQKPDGTVKLLIYYTSRLHSGVPSRFSGSGSGTDYSLTISNLEQEDIATYFCQQDNTLPWTFGGGTKLEIKRTVAAPSVFIFPPSDEQLKSGTASVVCLLNNFYPREAKVQWKVDNALQSGNSQESVTEQDSKDSTYSLSSTLTLSKADYEKHKVYACEVTHQGLSSPVTKSFNRGECGGGGSGGGGSGGGGSGGGGSEVQLVESGGGLVQPGGSLRLSCAASGFAFRSYTMSWVRQAPGKGLEWVSTITHNGAITTYAESAQGRFTISRDNSKNTLYLQMNSLRAEDTAVYYCAQGGGSNYYRESWGQGTQVTVSS
notes: also called 2+2 b13 format
Regarding B9, the binding result in experiment [3] is listed as “binds”.

B10: b18 (2p1130) anti-5T4/CD40 bispecific antibody (bispecific antibody, human IgG1, kappa, N297A)
heavy 1: EVQLQQSGPELVKPGASVKISCKASGYAFSSSWMNWVKQRPGKGLEWIGRIYREDGHTNYNGKFKGKATLTADKSSTTAYMQLTSLTSEDSAVYFCANGGAMDYWGQGTSVTVSSASTKGPSVFPLAPSSKSTSGGTAALGCLVKDYFPEPVTVSWNSGALTSGVHTFPAVLQSSGLYSLSSVVTVPSSSLGTQTYICNVNHKPSNTKVDKKVEPKSCDKTHTCPPCPAPELLGGPSVFLFPPKPKDTLMISRTPEVTCVVVDVSHEDPEVKFNWYVDGVEVHNAKTKPREEQYASTYRVVSVLTVLHQDWLNGKEYKCKVSNKALPAPIEKTISKAKGQPREPQVCTLPPSREEMTKNQVSLSCAVKGFYPSDIAVEWESNGQPENNYKTTPPVLDSDGSFFLVSKLTVDKSRWQQGNVFSCSVMHEALHNHYTQKSLSLSPGK
light: DIQMTQSTSSLSASLGDRVTISCRASQDISNYLNWYQQKPDGTVKLLIYYTSRLHSGVPSRFSGSGSGTDYSLTISNLEQEDIATYFCQQDNTLPWTFGGGTKLEIKRTVAAPSVFIFPPSDEQLKSGTASVVCLLNNFYPREAKVQWKVDNALQSGNSQESVTEQDSKDSTYSLSSTLTLSKADYEKHKVYACEVTHQGLSSPVTKSFNRGEC
heavy 2: not shown
notes: also called 1+3 b18 format
For B10, in experiment [3], the EC50 (read off the curve) – broadly, the concentration needed to bring the measured effect to its halfway point – was around 2 nM.

B11: b11 (42p155z2) anti-5T4/CD40 bispecific antibody (bispecific antibody, human IgG1, kappa, N297A)
heavy: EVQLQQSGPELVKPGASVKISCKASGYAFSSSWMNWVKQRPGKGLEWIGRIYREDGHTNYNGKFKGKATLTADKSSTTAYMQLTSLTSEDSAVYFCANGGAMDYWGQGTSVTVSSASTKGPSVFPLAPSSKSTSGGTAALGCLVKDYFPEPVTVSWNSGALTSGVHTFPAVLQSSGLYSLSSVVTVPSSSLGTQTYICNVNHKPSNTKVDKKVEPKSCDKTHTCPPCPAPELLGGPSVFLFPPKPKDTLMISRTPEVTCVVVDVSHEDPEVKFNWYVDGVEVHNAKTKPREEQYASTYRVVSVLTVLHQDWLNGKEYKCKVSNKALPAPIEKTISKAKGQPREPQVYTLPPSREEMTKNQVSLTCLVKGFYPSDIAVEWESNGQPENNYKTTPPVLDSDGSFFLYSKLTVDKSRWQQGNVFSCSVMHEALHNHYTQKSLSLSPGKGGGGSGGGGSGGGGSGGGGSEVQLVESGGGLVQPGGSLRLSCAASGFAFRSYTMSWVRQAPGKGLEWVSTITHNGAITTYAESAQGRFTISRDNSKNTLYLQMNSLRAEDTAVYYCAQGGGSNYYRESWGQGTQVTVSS
light: DIQMTQSTSSLSASLGDRVTISCRASQDISNYLNWYQQKPDGTVKLLIYYTSRLHSGVPSRFSGSGSGTDYSLTISNLEQEDIATYFCQQDNTLPWTFGGGTKLEIKRTVAAPSVFIFPPSDEQLKSGTASVVCLLNNFYPREAKVQWKVDNALQSGNSQESVTEQDSKDSTYSLSSTLTLSKADYEKHKVYACEVTHQGLSSPVTKSFNRGEC
notes: also called b 1 (42p155z2); 2+2 b11 format
On to B11, for which the binding result in experiment [3] was “binds”.
